Key:
[1] = biological target: cynomolgus CXCR4 (cynomolgus) (UniProt Q28474); assay: flow cytometry, transfected HEK293T cells; normalisation reference (column 10 nM)
hCXCR4-V196E (human) [2] = biological target: hCXCR4-V196E (human) (UniProt P61073); assay: as above
[3] = biological target: cynomolgus CXCR4 (cynomolgus) (UniProt Q28474); assay: flow cytometry, transfected HEK293T cells; normalisation reference (column 100 nM)
hCXCR4-V196E (human) [4] = biological target: hCXCR4-V196E (human) (UniProt P61073); assay: as above

Sequence of hCXCR4-V196E (human) (P61073 whole entry V196E): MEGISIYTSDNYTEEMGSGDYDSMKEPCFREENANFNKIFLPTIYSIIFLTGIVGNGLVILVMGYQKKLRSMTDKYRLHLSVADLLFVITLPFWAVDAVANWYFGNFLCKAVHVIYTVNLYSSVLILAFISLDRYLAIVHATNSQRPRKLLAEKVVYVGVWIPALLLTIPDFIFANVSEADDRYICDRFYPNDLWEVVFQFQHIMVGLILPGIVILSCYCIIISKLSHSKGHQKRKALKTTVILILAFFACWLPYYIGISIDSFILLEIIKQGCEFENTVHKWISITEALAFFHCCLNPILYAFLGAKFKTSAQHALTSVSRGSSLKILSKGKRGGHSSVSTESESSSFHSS
Sequence of cynomolgus CXCR4 (cynomolgus) (Q28474 whole entry): as the sequence (P61073 whole entry V196E) above, with M24I, N35H, K38R, R146K, N176S, E196V counted along it

% binding relative to hCXCR4 [1]: 100%
% binding relative to hCXCR4 (hCXCR4-V196E (human) [2]): 100%
% binding relative to hCXCR4 [3]: 100%
% binding relative to hCXCR4 (hCXCR4-V196E (human) [4]): 100%
Substance: anti-CXCR4 monoclonal antibody 12G5 (R&D Systems, MAB170)

Reference: patent US20180086837A1
